Test results taken from publication PMC4768041.

Key:
Test in all cases: SPR
Conditions in all cases: BIACORE 3000, RsmA-His6 (961 RU) on NTA chip; running buffer 10 mM Tris-HCl pH 7.5, 150 mM NaCl, 0.05% Tween (v/v), 1 mM [text truncated]; solutions degassed …
[1] = system: RsmA-His6 (Pseudomonas aeruginosa)
[2] = system: RsmA-His6 (Pseudomonas aeruginosa); remark: listed apart in the source
[3] = system: RsmA-His6 (Pseudomonas aeruginosa); remark: listed apart in the source

## cupA1 leader RNA
[1]
  binding signal (% lower RU than rsmZ RNA): 59
[2]
  binding signal (% lower RU than rsmZ RNA): 67
[3]
  binding signal (% lower RU than rsmZ RNA): 50
